One block for each substance: values may come before it.
Experiments:
Test in all cases: cysteine cross-linking, non-reducing SDS-PAGE, quantification of fluorescent blots
[1] = molecular target: GB1 double cysteine mutant with one cysteine in TM4 and one in TM1 (co-expressed with a non-mutated GB2); conditions: + CuP, co-expressed with GB2Ctr, parent: est. 2, read off a plot
[2] = molecular target: GB1 1.45/6.55; conditions: + CuP, co-expressed with GB2Ctr, parent: est. 2, read off a plot
[3] = molecular target: GB1 double cysteine mutant with one cysteine in TM5 and one in TM1 (co-expressed with a non-mutated GB2); conditions: + CuP, co-expressed with GB2Ctr, parent: est. 2, read off a plot
[4] = molecular target: GB1 4.52/6.55; conditions: + CuP, co-expressed with GB2Ctr, parent: est. 2, read off a plot
[5] = molecular target: GB1 double cysteine mutant with one cysteine in TM4 and one in TM7 (co-expressed with a non-mutated GB2); conditions: + CuP, co-expressed with GB2Ctr, parent: est. 2, read off a plot
[6] = molecular target: double mutant of GB1 carrying one cysteine in TM5 (I771C^5.42) and one in TM7 (L838C^7.34); conditions: + CuP, co-expressed with GB2Ctr, parent: est. 2, read off a plot
[7] = molecular target: GB2^5.40; conditions: + CuP; cell surface SNAP-GB1 labelled with fluorescent SNAP substrate; no ligand; parent: est. 2; read off a plot
[8] = molecular target: GB2^5.41; conditions: + CuP; cell surface SNAP-GB1 labelled with fluorescent SNAP substrate; no ligand; parent: est. 2; read off a plot
[9] = molecular target: GB2^5.45; conditions: + CuP; cell surface SNAP-GB1 labelled with fluorescent SNAP substrate; no ligand; parent: est. 2; read off a plot
[10] = molecular target: GB2^6.54; conditions: + CuP; cell surface SNAP-GB1 labelled with fluorescent SNAP substrate; no ligand; parent: est. 2; read off a plot
[11] = molecular target: GB2^6.55; conditions: + CuP; cell surface SNAP-GB1 labelled with fluorescent SNAP substrate; no ligand; parent: est. 2; read off a plot
[12] = molecular target: GB2^5.42 (cysteine mutant of GB2^Ctr at position 5.42) (UniProt O88871); conditions: + CuP; cell surface SNAP-GB1 labelled with fluorescent SNAP substrate; no ligand; parent: est. 2; read off a plot
[13] = molecular target: GB2 L711C^6.59 (in GB2^Ctr) (UniProt O88871); conditions: + CuP; cell surface SNAP-GB1 labelled with fluorescent SNAP substrate; no ligand; parent: est. 2; read off a plot

Substance: GB1^Ctr (control GABAB1 subunit: SNAP-tagged rat GB1a truncated in the C-terminal region) 1.45 Cys; 4.52 Cys
- other: Oligomer (% total GB1) ([1]; + GABA 100 μM): 32 % total GB1
- other: Oligomer (% total GB1) ([1]; no agonist): 24 % total GB1

Substance: GB1^Ctr (control GABAB1 subunit: SNAP-tagged rat GB1a truncated in the C-terminal region) 4.52 Cys; 6.55 Cys
- other: Oligomer (% total GB1) ([4]; + GABA 100 μM): 21 % total GB1
- other: Oligomer (% total GB1) ([4]; no agonist): 16 % total GB1

Substance: m1; m2 GB1:6.54 Cys; GB2:6.54 Cys
- other: Change of GB1-GB2 dimer cross-linking (%) [10]: 23%

Substance: m1; m2 GB1:I771C; GB2:5.42 Cys
- other: Change of GB1-GB2 dimer cross-linking (%) [12]: 14%

Substance: m1; m2 GB1:I824C; GB2:L711C
- other: Change of GB1-GB2 dimer cross-linking (%) [13]: 28%

Other lines, results leading:

- other: Oligomer (% total GB1) ([2]; + GABA 100 μM): 4 % total GB1
- other: Oligomer (% total GB1) ([2]; no agonist): 2.5 % total GB1
Substance: GB1^Ctr (control GABAB1 subunit: SNAP-tagged rat GB1a truncated in the C-terminal region) 1.45 Cys; 6.55 Cys

- other: Oligomer (% total GB1) ([3]; + GABA 100 μM): 12 % total GB1
- other: Oligomer (% total GB1) ([3]; no agonist): 5 % total GB1
Substance: GB1^Ctr (control GABAB1 subunit: SNAP-tagged rat GB1a truncated in the C-terminal region) 1.45 Cys; I771C

- other: Oligomer (% total GB1) ([5]; + GABA 100 μM): 12 % total GB1
- other: Oligomer (% total GB1) ([5]; no agonist): 7 % total GB1
Substance: GB1^Ctr (control GABAB1 subunit: SNAP-tagged rat GB1a truncated in the C-terminal region) 4.52 Cys; L838C

- other: Oligomer (% total GB1) ([6]; + GABA 100 μM): 2.5 % total GB1
- other: Oligomer (% total GB1) ([6]; no agonist): 1 % total GB1
Substance: GB1^Ctr (control GABAB1 subunit: SNAP-tagged rat GB1a truncated in the C-terminal region) I771C; L838C

- other: Change of GB1-GB2 dimer cross-linking (%) [7]: 12%
Substance: m1; m2 GB1:5.40 Cys; GB2:5.40 Cys

- other: Change of GB1-GB2 dimer cross-linking (%) [8]: 28%
Substance: m1; m2 GB1:5.41 Cys; GB2:5.41 Cys

- other: Change of GB1-GB2 dimer cross-linking (%) [9]: 24%
Substance: m1; m2 GB1:5.45 Cys; GB2:5.45 Cys

- other: Change of GB1-GB2 dimer cross-linking (%) [11]: 32%
Substance: m1; m2 GB1:6.55 Cys; GB2:6.55 Cys

Reference: publication PMC6591306
